Experimental data from patent publication US20260000597A1 (priority 2018, published 2026).

These substances were tested against AchR (Homo sapiens, UniProt P02708) (assay: ELISA of screened peptide phages on AchR versus streptavidin (OD450)). Settings: ELISA of selected 11-mer (L2) peptide phages on AchR, absorbance at 450 nm; Spep-2 positive control.
Type: binding
How it was run: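 Reported as the ratio of AchR to streptavidin OD450, with TMB read-out after HRP anti-M13 detection. Wells coated with 5 μg/ml target overnight at 4 °C and BSA-blocked, then incubated 1 h at 30 °C with helper-rescued phage from individual plaques.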

Sequence of AchR (P02708 21-457): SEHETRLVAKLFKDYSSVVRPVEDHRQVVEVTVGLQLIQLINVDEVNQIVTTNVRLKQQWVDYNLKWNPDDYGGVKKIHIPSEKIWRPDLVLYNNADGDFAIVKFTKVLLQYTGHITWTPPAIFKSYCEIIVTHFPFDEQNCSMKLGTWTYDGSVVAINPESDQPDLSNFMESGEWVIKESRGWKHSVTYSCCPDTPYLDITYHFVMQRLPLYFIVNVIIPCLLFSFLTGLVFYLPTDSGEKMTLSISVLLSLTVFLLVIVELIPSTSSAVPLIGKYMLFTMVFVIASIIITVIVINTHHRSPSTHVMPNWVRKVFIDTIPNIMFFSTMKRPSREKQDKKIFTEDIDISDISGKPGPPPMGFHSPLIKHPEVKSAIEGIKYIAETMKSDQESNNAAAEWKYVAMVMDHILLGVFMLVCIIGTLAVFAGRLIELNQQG

| Substance | OD |
| --- | --- |
| L2-140 (YPQKLRRTALK; AchR binding peptide) [Peptide L2-140] | 0.445 |
| L2-189 (AHIKSRKVWSR; AchR binding peptide) [Peptide L2-189] | 0.696 |
| L2-24 (SFWRERKNGFR; AchR binding peptide) [Peptide L2-24] | 0.812 |
| L2-44 (NMGRHKRPFLK; AchR binding peptide) [Peptide L2-44] | 0.579 |
| L2-155 (NEARIKKCDVK; AchR binding peptide) [Peptide L2-155] | 0.742 |
| L2-134 (VWNKVKRWLER; AchR binding peptide) [Peptide L2-134] | 0.44 |
| L2-120 (PAARTKRMYGR; AchR binding peptide) [Peptide L2-120] | 0.607 |
| L2-157 (NFYKCRKLQCK; AchR binding peptide) [Peptide L2-157] | 0.731 |
| L2-133 (DFSRDRRCLSK; AchR binding peptide) [Peptide L2-133] | 0.526 |
| L2-93 (FNPKMRKVCLR; AchR binding peptide) [Peptide L2-93] | 0.635 |
| L2-124 (NVVRGRRLECR; AchR binding peptide) [Peptide L2-124] | 0.556 |
| L2-125 (PADKGRREVMK; AchR binding peptide) [Peptide L2-125] | 0.481 |
| L2-166 (QQLRLRKLCGK; AchR binding peptide) [Peptide L2-166] | 0.579 |
| L2-65 (PLWKTRKIEPR; AchR binding peptide) [Peptide L2-65] | 0.731 |
| L2-119 (FCRRSKKIGRR; AchR binding peptide) [Peptide L2-119] | 0.56 |
| L2-34 (VMDRDRKWWWR; AchR binding peptide) [Peptide L2-34] | 0.604 |
| L2-97 (DVNKYRKHSHK; AchR binding peptide) [Peptide L2-97] | 0.531 |
| L2-196 (QNMRMKRFIQR; AchR binding peptide) [Peptide L2-196] | 0.574 |

| Substance | OD |
| --- | --- |
| L2-149 (LPMKQRKCEFR; AchR binding peptide) [Peptide L2-149] | 0.465 |
| L2-122 (MGDRPRKWDSR; AchR binding peptide) [Peptide L2-122] | 0.558 |
| L2-8 (FGHRGKKEWAR; AchR binding peptide) [Peptide L2-8] | 0.739 |
| L2-76 (PWVRIRKMASR; AchR binding peptide) [Peptide L2-76] | 0.725 |
| L2-42 (YYAKSKKYMVR; AchR binding peptide) [Peptide L2-42] | 0.508 |
| L2-195 (CQAKTRKAEDR; AchR binding peptide) [Peptide L2-195] | 0.65 |
| L2-167 (MFMRNKKLAWR; AchR binding peptide) [Peptide L2-167] | 0.584 |
| L2-70 (QLLKMRKALSR; AchR binding peptide) [Peptide L2-70] | 0.67 |
| L2-183 (TCDRARKESFR; AchR binding peptide) [Peptide L2-183] | 0.688 |
| L2-177 (LNSKPRRVEFK; AchR binding peptide) [Peptide L2-177] | 0.768 |
| L2-16 (VDVRNKKSNNR; AchR binding peptide) [Peptide L2-16] | 0.77 |
| L2-181 (PGARCRKQDVK; AchR binding peptide) [Peptide L2-181] | 0.749 |
| L2-193 (PALRMRRWCQK; AchR binding peptide) [Peptide L2-193] | 0.705 |
| L2-52 (LPSRPKKPVPK; AchR binding peptide) [Peptide L2-52] | 0.624 |
| L2-179 (GIAKSKRNAGR; AchR binding peptide) [Peptide L2-179] | 0.716 |
| L2-146 (LIGKFKKPFYR; AchR binding peptide) [Peptide L2-146] | 0.605 |
| L2-142 (DNPRFRKTILK; AchR binding peptide) [Peptide L2-142] | 0.512 |

Same assay, conditions: ELISA of selected 14-mer (L3) peptide phages on AchR, absorbance at 450 nm; Spep-2 positive control

| Substance | OD |
| --- | --- |
| L3-6 (EFVKLRKARLRGPQ; AchR binding peptide) [Peptide L3-6] | 0.77 |
| L3-193 (AAYRARKIVEKSGW; AchR binding peptide) [Peptide L3-193] | 0.755 |
| L3-185 (VLPKERRWLTRFLI; AchR binding peptide) [Peptide L3-185] | 0.794 |
| L3-76 (QMGKFKKISLKNTF; AchR binding peptide) [Peptide L3-76] | 0.701 |
| L3-192 (NGYRARKENLKFPE; AchR binding peptide) [Peptide L3-192] | 0.735 |
| L3-181 (GPCRPRRHSIRLLW; AchR binding peptide) [Peptide L3-181] | 0.624 |
| L3-47 (LYEKYKKHNNREDD; AchR binding peptide) [Peptide L3-47] | 0.558 |
| L3-189 (ELVKHRRLDFRDPM; AchR binding peptide) [Peptide L3-189] | 0.786 |
| L3-130 (EHSKHRKDLFRMVG; AchR binding peptide) [Peptide L3-130] | 0.531 |
| L3-131 (YTPKFRRIFWRIID; AchR binding peptide) [Peptide L3-131] | 0.655 |
| L3-100 (LEERPKKHCAKNHC; AchR binding peptide) [Peptide L3-100] | 0.572 |
| L3-93 (EGGRIKRPNYRGDG; AchR binding peptide) [Peptide L3-93] | 0.7 |
| L3-180 (QGIRPRKHLQRMPN; AchR binding peptide) [Peptide L3-180] | 0.7 |
| L3-11 (FMQKCKKWWDRAVF; AchR binding peptide) [Peptide L3-11] | 0.8 |
| L3-143 (QTMKFKRCCNKEMV; AchR binding peptide) [Peptide L3-143] | 0.559 |
| L3-103 (NDWKLRKDFWRNHF; AchR binding peptide) [Peptide L3-103] | 0.676 |
| L3-62 (YPERPRKLQDKSYS; AchR binding peptide) [Peptide L3-62] | 0.766 |

| Substance | OD |
| --- | --- |
| L3-190 (VHHKLRRVHLRLDV; AchR binding peptide) [Peptide L3-190] | 0.792 |
| L3-179 (YNARVKREGIKNIT; AchR binding peptide) [Peptide L3-179] | 0.743 |
| L3-25 (CFQRKRKSLLRVLR; AchR binding peptide) [Peptide L3-25] | 0.807 |
| L3-184 (DMDKVKKWVWRSFP; AchR binding peptide) [Peptide L3-184] | 0.766 |
| L3-175 (TCHKTKRSIMRATS; AchR binding peptide) [Peptide L3-175] | 0.768 |
| L3-173 (QLGKQKREATREYV; AchR binding peptide) [Peptide L3-173] | 0.775 |
| L3-117 (CGHKNKKWHNRMDP; AchR binding peptide) [Peptide L3-117] | 0.696 |
| L3-106 (DLVRKRKTMLRQLV; AchR binding peptide) [Peptide L3-106] | 0.642 |
| L3-127 (WVDRSRKFEDRNCL; AchR binding peptide) [Peptide L3-127] | 0.608 |
| L3-99 (PCWKFRRAQMKWGI; AchR binding peptide) [Peptide L3-99] | 0.692 |
| L3-134 (YWFRIKRAHAKGCP; AchR binding peptide) [Peptide L3-134] | 0.653 |
| L3-107 (DLSKVRRGHGKNDI; AchR binding peptide) [Peptide L3-107] | 0.658 |
| L3-71 (PLIKVKRGVGKLWN; AchR binding peptide) [Peptide L3-71] | 0.78 |
| L3-200 (HMCRWRRQINKGVS; AchR binding peptide) [Peptide L3-200] | 0.733 |
| L3-98 (PNGKVRKRIRRRYF; AchR binding peptide) [Peptide L3-98] | 0.685 |
| L3-177 (FQPKSRRAETKHSY; AchR binding peptide) [Peptide L3-177] | 0.735 |

Same assay, conditions: phage ELISA, absorbance at 450 nm, 5 μg/ml AchR; 4th and 5th round biopanning phages

| Substance | OD |
| --- | --- |
| RARKESHK [Peptide L1-166] | 0.649 |
| RQKKDFLK [Peptide L1-107] | 0.534 |
| RDRKIHDK [Peptide L1-23] | 0.712 |
| RVRRSWIR [Peptide L1-72] | 0.616 |
| KFRKHVCK [Peptide L1-116] | 0.492 |
| KSRKWGWR [Peptide L1-39] | 0.509 |
| RGKRHWHR [Peptide L1-179] | 0.633 |
| KWKKMMER [Peptide L1-81] | 0.63 |
| KGKKLSQR [Peptide L1-75] | 0.581 |
| RTKKENVK [Peptide L1-180] | 0.618 |
| KIKRNVFK [Peptide L1-160] | 0.55 |
| RAKRMCCK [Peptide L1-8] | 0.653 |
| RPKKWMQK [Peptide L1-61] | 0.625 |
| RNKRDENK [Peptide L1-29] | 0.646 |
| KNKKCVGR [Peptide L1-88] | 0.562 |
| KIKKLSQK [Peptide L1-168] | 0.588 |
| KVRKSLWK [Peptide L1-52] | 0.56 |
| KDKKQWGR [Peptide L1-114] | 0.42 |
| KMRKGWDK [Peptide L1-138] | 0.373 |
| RTRKCVLK [Peptide L1-89] | 0.551 |
| KTKRMLAK [Peptide L1-47] | 0.54 |
| KPKRSAPR [Peptide L1-125] | 0.345 |
| RPKRNWAK [Peptide L1-96] | 0.494 |
| KLKRRSRR [Peptide L1-16] | 0.62 |
| RFRKPTDR [Peptide L1-127] | 0.412 |
| RIRKITWR [Peptide L1-194] | 0.636 |
| RLKRGQFK [Peptide L1-85] | 0.57 |
| RIKRNNCK [Peptide L1-130] | 0.368 |
| RPRRSLDR [Peptide L1-17] | 0.653 |
